Data from the supplement of paper PMC7125110.
± gives the standard error. This sample holds only a part of the variants without activity.

B1: glmS ribozyme (parent)
chain: AUAAAAGCGCCAGAACUACAGAAAUGUAGUUGACGAGGAGGAGGUUUAUCGAAUUUUCGGCGGAUGCCUCCAAA

Variants of: B1
Assay: self-cleavage kobs at 640 uM GlcN6P; higher = faster cleavage; RNA array
Conditions: with glucosamine-6-phosphate
In short: (§1)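 Tiles bearing barcoded ribozyme variants, transcribed in situ by E. coli RNA polymerase on sequenced MiSeq chips, were imaged over ~14 h at 37 °C using a hybridised Cy3 probe. Glucosamine-6-phosphate was supplied at 40 μM to 10 mM in HEPES/KCl/Mg(OAc)2 buffer. kobs came from one- or two-exponential decay fits to normalised per-tile medians, and weighted Michaelis–Menten fits then provided kcat and KM.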

Variant | self-cleavage kobs at 640 uM GlcN6P [s⁻¹]
A48G C58A C67G C70U | 0.000135 ± 4.4e-05
G41C G60U U65C C67G C68A | < 1e-05
A48C U49G C50A | < 1e-05
U55A C67A C70G | 0.000113 ± 2.4e-05
C58A C70A C71A | 8.13e-05 ± 2.5e-05
G44U G62A C70U | < 1e-05
G41U A52C U65A | < 1e-05
G59U G62A U65A | < 1e-05
A48G U54C C67U | < 1e-05
A42U G59C G60A | < 1e-05
C58U A64C | < 1e-05
U55G G59A C70A | < 1e-05
A42U G43A G51A C68U | < 1e-05
A42G U54G U55G U65A C67A C71U | 0.000215 ± 3.1e-05
G40U U45C C67G | 4.79e-05 ± 1.9e-05
A53U C67G C68G | 4.57e-05 ± 2.1e-05
G44A C50U G63U | < 1e-05
A42U C61G G66A | < 1e-05
G51U G66A | < 1e-05
C50G U54C G60C C61G | 0.000234 ± 5.5e-05
U49A G63U | < 1e-05
A42C G60C C70U | < 1e-05
C50G A64U C70U | 0.000173 ± 5.1e-05
U47C U49C G62A G63A | < 1e-05
U46G C50G C71A | 8.98e-05 ± 3.3e-05

Variants of: B1
Assay: self-cleavage kobs at 2500 uM GlcN6P; higher = faster cleavage; RNA array
Conditions: with glucosamine-6-phosphate
In short: as §1

Variant | self-cleavage kobs at 2500 uM GlcN6P [s⁻¹]
A48G C58A C67G C70U | 6.91e-05 ± 2.5e-05
A6C C11U G21U G32C G41U G43U U65G C68U U69G | < 1e-05
U55A C67A C70G | 7.88e-05 ± 1.6e-05
A6C U55G G59U C61A A64C | < 1e-05
C58A C70A C71A | 0.000492 ± 0.00012
A6G A12C C16U | 0.000167 ± 3.6e-05
A6G G29C A33C U47G | < 1e-05
A6U C10G C50G A52G U55A C68A | 0.000313 ± 7.4e-05
G7A G40A A53U | < 1e-05
A6C A48U C61U C70G | < 1e-05
G59U G62A U65A | < 1e-05
G7A C8G G9C C10G A12C G13A A14G C16A G41C G66U | < 1e-05
G7C A36G U55C | < 1e-05
U55G G59A C70A | < 1e-05
A42G U54G U55G U65A C67A C71U | 8.43e-05 ± 2e-05
G40U U45C C67G | 7.13e-05 ± 1.7e-05
A6G G29A C50G | 0.000103 ± 3.9e-05
G51U G66A | < 1e-05
A6G A52C U65G | < 1e-05
C50G U54C G60C C61G | 8.41e-05 ± 2.8e-05
A42C G60C C70U | < 1e-05
A6G G44A A52U C61U G62A C70G C71U | < 1e-05
A6G C34U A36C | < 1e-05
C50G A64U C70U | 0.000192 ± 4.3e-05

Variants of: B1
Assay: self-cleavage kobs at 10000 uM GlcN6P; higher = faster cleavage; RNA array
Conditions: with glucosamine-6-phosphate
In short: as §1

Variant | self-cleavage kobs at 10000 uM GlcN6P [s⁻¹]
A48G C58A C67G C70U | 4.32e-05 ± 1.3e-05
A6G A52C U65G | < 1e-05
A42C G60C C70U | < 1e-05
